According to PMC6451091, “NextPBM: a platform to study cell-specific transcription factor binding and cooperativity”:
Substitutions are numbered along the chain they refer to.

B1: PBM_PU1_IRF8_v2_30 (dsDNA)
DNA 1: GCCTAGCACATTTTAAGGAAGTGAAACCCGTGCTAGGTCTTGATTCGCTTGACGCTGCTG
DNA 2: CAGCAGCGTCAAGCGAATCAAGACCTAGCACGGGTTTCACTTCCTTAAAATGTGCTAGGC
B2: PBM_PU1_IRF8_v2_16 (dsDNA)
DNA 1: GCCTAGCACAATATAGGGAAGTGCTTAACGTGCTAGGTCTTGATTCGCTTGACGCTGCTG
DNA 2: CAGCAGCGTCAAGCGAATCAAGACCTAGCACGTTAAGCACTTCCCTATATTGTGCTAGGC
B3: PBM_PU1_IRF8_v2_2 (dsDNA)
DNA 1: GCCTAGCACGAAAAGGGGAAGTGTATTCCGTGCTAGGTCTTGATTCGCTTGACGCTGCTG
DNA 2: CAGCAGCGTCAAGCGAATCAAGACCTAGCACGGAATACACTTCCCCTTTTCGTGCTAGGC
B4: PBM_PU1_IRF8_v2_1 (dsDNA)
DNA 1: GCCTAGCACTAAAAGAGGAAGTGGCAGATGTGCTAGGTCTTGATTCGCTTGACGCTGCTG
DNA 2: CAGCAGCGTCAAGCGAATCAAGACCTAGCACATCTGCCACTTCCTCTTTTAGTGCTAGGC
B5: PBM_PU1_IRF8_v2_22 (dsDNA)
DNA 1: B3 DNA 1 with G16A, T24G, T26A, T27A, C29A
DNA 2: B4 DNA 2 with A32T, T33G, C34T, G36T, A51C
B6: PBM_PU1_IRF8_v2_13 (dsDNA)
DNA 1: B3 DNA 1 with G16A, G23C, T24A, A25G, T26A, C28T, C29G
DNA 2: B4 DNA 2 with A32C, T33A, C34A, G36C, C37T, C38G, A51C
B7: PBM_PU1_IRF8_v2_3 (dsDNA)
DNA 1: B4 DNA 1 with T10A, A11T, A14G, A26T, T29A
DNA 2: B4 DNA 2 with A32T, T35A, T47C, T50A, A51T
B8: PBM_PU1_IRF8_v2_24 (dsDNA)
DNA 1: B1 DNA 1 with T12A, T13A, T14G, A15G, A25G, C28A, C29G
DNA 2: B4 DNA 2 with A32C, C34G, G36C, C37T, T47C, T50A, A51T
B9: PBM_PU1_IRF8_v2_6 (dsDNA)
DNA 1: B3 DNA 1 with A13G, G16A, T24A, T26A, C28T, C29A
DNA 2: B3 DNA 2 with G32T, G33A, A35T, A37T, C45T, T48C
B10: PBM_PU1_IRF8_v2_5 (dsDNA)
DNA 1: B4 DNA 1 with T10A, A13T, G23C, G24A, C25G, T29G
DNA 2: B4 DNA 2 with A32C, G36C, C37T, C38G, T48A, A51T
B11: PBM_PU1_IRF8_v2_4 (dsDNA)
DNA 1: B3 DNA 1 with G15C, G16A, T24G, T26C, T27A, C28A
DNA 2: B4 DNA 2 with A32G, C34T, T35G, G36T, C46G, A51C
B12: PBM_PU1_IRF8_v2_23 (dsDNA)
DNA 1: B4 DNA 1 with T10C, A14T, G24A, C25G, G27C, A28T
DNA 2: B4 DNA 2 with T33A, C34G, G36C, C37T, T47A, A51G

Target: PU.1 (IVT) (UniProt P17947 1-270)
Assay: PBM; 20 mM HEPES pH 7.9, 100 mM NaCl, 1 mM DTT, 0.2 mg/mL BSA, 0.02% Triton X-100, 2% milk, 0.4 mg/mL salmon testes DNA, 1 h; temperature not stated
Conditions: protein: ivt; blunt
Procedure, shortened: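 Custom double-stranded DNA microarrays bearing 20-bp genomic sites and single-nucleotide variants (10 probes per site, 5 per orientation) were incubated for 1 h with full-length untagged PU.1 made by coupled human in vitro transcription/translation, in HEPES pH 7.9 with 100 mM NaCl, 2% milk and salmon testes DNA. Anti-PU.1 and a fluorescent secondary antibody detected the bound protein. Each binding value is a z-score from scanned fluorescence after linear-regression normalisation.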

Binder | binding signal [z-score]
B1 | 5.72
B2 | 5.82
B3 | 7.7
B4 | 8.16
B5 | 8.54
B6 | 8.24
B7 | 5.13
B8 | 4.54
B9 | 5.03
B10 | 6.21
B11 | 7.4
B12 | 7.69
